In this test the target is T1, GST-hDbr1 (human, UniProt Q9UK59-1 1-544).
T1 construct: human Dbr1, cDNA NM_016216 inserted into BamHI and XhoI sites of GEX-6P-1; also called GST-hDbr1 protein; recombinant Dbr1 protein fused to GST; source: E. coli BL21 (DE3) CodonPlus-RIPL, purified (Glutathione Sepharose)
T1 sequence (looked up): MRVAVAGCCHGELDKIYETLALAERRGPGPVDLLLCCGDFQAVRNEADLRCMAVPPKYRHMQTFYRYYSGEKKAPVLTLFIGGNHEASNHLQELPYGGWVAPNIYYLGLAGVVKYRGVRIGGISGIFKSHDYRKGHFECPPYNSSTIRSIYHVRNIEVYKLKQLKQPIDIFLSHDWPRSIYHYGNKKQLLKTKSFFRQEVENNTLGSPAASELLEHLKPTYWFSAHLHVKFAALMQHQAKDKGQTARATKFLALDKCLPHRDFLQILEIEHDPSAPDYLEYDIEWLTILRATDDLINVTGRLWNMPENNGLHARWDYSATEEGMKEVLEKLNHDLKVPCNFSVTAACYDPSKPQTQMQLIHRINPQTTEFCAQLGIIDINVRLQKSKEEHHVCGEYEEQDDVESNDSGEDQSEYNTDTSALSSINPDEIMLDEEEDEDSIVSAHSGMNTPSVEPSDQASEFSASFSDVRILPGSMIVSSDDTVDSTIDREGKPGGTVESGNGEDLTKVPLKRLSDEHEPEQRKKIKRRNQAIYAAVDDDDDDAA
The experiment in a line: pull-down; 2 μg purified His-tagged (T7-His) hDrn1 incubated with 5 μg GST or GST-hDbr1; bound proteins detected by Western blotting with anti-T7 tag antibody. Particulars: both partners purified.

B1: T7-His-hDrn1 (natural protein, human, UniProt Q69YN2-1 1-538, looked up)
chain: MAQKPLRLLACGDVEGKFDILFNRVQAIQKKSGNFDLLLCVGNFFGSTQDAEWEEYKTGIKKAPIQTYVLGANNQETVKYFQDADGCELAENITYLGRKGIFTGSSGLQIVYLSGTESLNEPVPGYSFSPKDVSSLRMMLCTTSQFKGVDILLTSPWPKCVGNFGNSSGEVDTKKCGSALVSSLATGLKPRYHFAALEKTYYERLPYRNHIILQENAQHATRFIALANVGNPEKKKYLYAFSIVPMKLMDAAELVKQPPDVTENPYRKSGQEASIGKQILAPVEESACQFFFDLNEKQGRKRSSTGRDSKSSPHPKQPRKPPQPPGPCWFCLASPEVEKHLVVNIGTHCYLALAKGGLSDDHVLILPIGHYQSVVELSAEVVEEVEKYKATLRRFFKSRGKWCVVFERNYKSHHLQLQVIPVPISCSTTDDIKDAFITQAQEQQIELLEIPEHSDIKQIAQPGAAYFYVELDTGEKLFHRIKKNFPLQFGREVLASEAILNVPDKSDWRQCQISKEDEETLARRFRKDFEPYDFTLDD
notes: Cwf19L1/hDrn1 cDNA (NM_018294), same fragment as in myc-/Flag-hDrn1, between BamHI and XhoI sites of pET-28a; pET-28a with BamHI/XhoI would place the His and T7 tags at the N-terminus (surmised); also called T7- and His-tagged hDrn1 protein; His-tagged hDrn1; source: E. coli BL21 (DE3) CodonPlus-RIPL, purified (Ni-NTA)
Consider B1, for which the binding result is given as “binds”.

Source of the values: paper PMC4346921, “Identification of the Specific Interactors of the Human Lariat RNA Debranching Enzyme 1 Protein” (International Journal of Molecular Sciences, 2015).
